Experimental findings from patent US7588931B2, “High arachidonic acid producing strains of Yarrowia lipolytica” (E. I. du Pont de Nemours and Company, priority 2004, dated 2009) are described below.

One series concerns Yarrowia lipolytica. The series can be described thus: Percent substrate conversion of desaturases and elongases expressed in Yarrowia lipolytica. Format: cell-based. As to conditions: percent substrate conversion; for Codon-Opt. Gene % Sub. Conv.: codon-optimized gene expressed in Y. lipolytica. How it is done: The terms “conversion efficiency” and “percent substrate conversion” refer to the efficiency by which a particular enzyme (e.g., a desaturase or elongase) can convert substrate to product. The conversion efficiency is measured according to the following formula: ([product]/[substrate+product])*100, where ‘product’ includes the immediate product and all products in the pathway derived from it.
With respect to Δ12 desaturase, Applicants have made the surprising discovery that the Fusarium moniliforme Δ12 desaturase (encoded by SEQ ID NO:27) functions with greater efficiency than the native Yarrowia lipolytica Δ12 desaturase in producing 18:2 in Y. lipolytica (see WO 2005/047485). Specifically, expression of the F. moniliforme Δ12 desaturase under the control of the TEF promoter in Y. lipolytica was determined to produce higher levels of 18:2 (68% product accumulation of LA) than were previously attainable by expression of a chimeric gene encoding the Y. lipolytica Δ12 desaturase under the control of the TEF promoter (59% product accumulation of LA). This corresponds to a difference in percent substrate conversion (calculated as ([18:2+18:3]/[18:1+18:2+18:3])*100) of 85% versus 74%, respectively.
In the present invention, several desaturase and elongase genes from Table 5 were codon-optimized for expression in Yarrowia lipolytica, based on the host preferences described above. This was possible by first determining the Y. lipolytica codon usage profile (see WO 04/101757) and identifying those codons that were preferred. Then, for further optimization of gene expression in Y. lipolytica, the consensus sequence around the ‘ATG’ initiation codon was determined (i.e., ‘MAMMATGNHS’ (SEQ ID NO:356), wherein the nucleic acid degeneracy code used is as follows: M=A/C; S═C/G; H=A/C/T; and N=A/C/G/T). Table 7, below, compares the activity of native and codon-optimized genes when expressed in Y. lipolytica and provides details about each codon-optimized gene. % Sub. Conv. is the abbeviation for “percent substrate conversion” and Codon-Opt. is an abbreviation for “codon-optimized”.
Construct pDMW237 (FIG. 8C), an auto-replication plasmid comprising a chimeric FBAIN::1 g D9e::Pex20 gene, was transformed into Y. lipolytica Y2031 strain (Example 4) as described in the General Methods. Three transformants of Y2031 with pDMW237 were grown individually in MM media for two days and the cells were collected by centrifugation, lipids were extracted, and fatty acid methyl esters were prepared by trans-esterification, and subsequently analyzed with a Hewlett-Packard 6890 GC.
Construct pDMW297 was then used for transformation of strain Y2031 (Example 5) according to the General Methods. The transformant cells were plated onto MM selection media plates and maintained at 30° C. for 2 to 3 days. A total of 8 transformants grown on the MM plates were picked and re-streaked onto fresh MM plates. Once grown, these strains were individually inoculated into liquid MM at 30° C. and shaken at 250 rpm/min for 2 days. The cells were collected by centrifugation, lipids were extracted, and fatty acid methyl esters were prepared by trans-esterification, and subsequently analyzed with a Hewlett-Packard 6890 GC.

The test system of series [1] is β-glucuronidase (GUS) reporter. The experiment in a line: Relative promoter activity rank from comparative GUS reporter studies (histochemical, fluorometric and/or Real Time PCR). Format: cell-based, Yarrowia lipolytica. To be noted: relative to other promoters. The procedure:
The activity of GPM is about the same as TEF, while the activity of GPD, FBA, FBAIN, FBAINm, GPDIN, GPAT, YAT1 and EXP1 are all greater than TEF (activity is quantified in a relative manner in the column titled “Activity Rank”, wherein a ‘1’ corresponds to the promoter with lowest activity, while a ‘7’ corresponds to the promoter with highest activity). […] GUS activity in each expressed construct was measured by histochemical and/or fluorometric assays (Jefferson, R. A. Plant Mol. Biol. Reporter 5:387-405 (1987)) and/or by use of Real Time PCR.
(In general: In qPCR the cycle at which signal appears reflects the starting amount.)

B1: Rattus norvegicus C16/18 elongase: GenBank AB071986; codon-optimized gene SEQ ID NO:52 (protein, listed as Rattus norvegicus)
chain: MDMSVLTLQEYEFEKQFNENEAIQWMQENWKKSFLFSALYAAFIFGGRHLMNKRAKFELRKPLVLWSLTLAVFSIFGALRTGAYMLYILMTKGLKQSVCDQSFYNGPVSKFWAYAFVLSKAPELGDTIFIILRKQKLIFLHWYHHITVLLYSWYSYKDMVAGGGWFMTMNYGVHAVMYSYYALRAAGFRVSRKFAMFITLSQITQMLMGCVINYLVFNWMQHDNDQCYSHFQNIFWSSLMYLSYLLLFCHFFFEAYIGKVKKATKAE
modifications: misc_feature: synthetic C16/18 elongase (codon-optimized)
Turning to B1, the “Codon-Opt. Gene % Sub. Conv.” value in the series with Yarrowia lipolytica came out at 43%.

B2: Isochrysis galbana Δ5 desaturase: codon-optimized gene SEQ ID NO:10 (protein, listed as Isochrysis galbana)
chain: MVAGKSGAAAHVTHSSTLPREYHGATNDSRSEAADVTVSSIDAEKEMIINGRVYDVSSFVKRHPGGSVIKFQLGADASDAYNNFHVRSKKADKMLYSLPSRPAEAGYAQDDISRDFEKLRLELKEEGYFEPNLVHVSYRCVEVLAMYWAGVQLIWSGYWFLGAIVAGIAQGRCGWLQHEGGHYSLTGNIKIDRHLQMAIYGLGCGMSGCYWRNQHNKHHATPQKLGTDPDLQTMPLVAFHKIVGAKARGKGKAWLAWQAPLFFGGIICSLVSFGWQFVLHPNHALRVHNHLELAYMGLRYVLWHLAFGHLGLLSSLRLYAFYVAVGGTYIFTNFAVSHTHKDVVPPTKHISWALYSANHTTNCSDSPFVNWWMAYLNFQIEHHLFPSMPQYNHPKIAPRVRALFEKHGVEYDVRPYLECFRVTYVNLLAVGNPEHSYHEHTH
modifications: misc_feature: synthetic delta-5 desaturase (codon-optimized)
In the case of B2, the “Codon-Opt. Gene % Sub. Conv.” value in the series with Yarrowia lipolytica is recorded as 32%. In addition, the “Native Gene % Sub. Conv.” value in the series on Yarrowia lipolytica (expressed in Y. lipolytica) came to 7%.

B3: EXP1: Y. lipolytica export protein promoter, SEQ ID NO:364 (nucleic acid, listed as Yarrowia lipolytica)
DNA: GGAGTTTGGCGCCCGTTTTTTCGAGCCCCACACGTTTCGGTGAGTATGAGCGGCGGCAGATTCGAGCGTTTCCGGTTTCCGCGGCTGGACGAGAGCCCATGATGGGGGCTCCCACCACCAGCAATCAGGGCCCTGATTACACACCCACCTGTAATGTCATGCTGTTCATCGTGGTTAATGCTGCTGTGTGCTGTGTGTGTGTGTTGTTTGGCGCTCATTGTTGCGTTATGCAGCGTACACCACAATATTGGAAGCTTATTAGCCTTTCTATTTTTTCGTTTGCAAGGCTTAACAACATTGCTGTGGAGAGGGATGGGGATATGGAGGCCGCTGGAGGGAGTCGGAGAGGCGTTTTGGAGCGGCTTGGCCTGGCGCCCAGCTCGCGAAACGCACCTAGGACCCTTTGGCACGCCGAAATGTGCCACTTTTCAGTCTAGTAACGCCTTACCTACGTCATTCCATGCATGCATGTTTGCGCCTTTTTTCCCTTGCCCTTGATCGCCACACAGTACAGTGCACTGTACAGTGGAGGTTTTGGGGGGGTCTTAGATGGGAGCTAAAAGCGGCCTAGCGGTACACTAGTGGGATTGTATGGAGTGGCATGGAGCCTAGGTGGAGCCTGACAGGACGCACGACCGGCTAGCCCGTGACAGACGATGGGTGGCTCCTGTTGTCCACCGCGTACAAATGTTTGGGCCAAAGTCTTGTCAGCCTTGCTTGCGAACCTAATTCCCAATTTTGTCACTTCGCACCCCCATTGATCGAGCCCTAACCCCTGCCCATCAGGCAATCCAATTAAGCTCGCATTGTCTGCCTTGTTTAGTTTGGCTCCTGCCCGTTTCGGCGTCCACTTGCACAAACACAAACAAGCATTATATATAAGGCTCGTCTCTCCCTCCCAACCACACTCACTTTTTTGCCCGTCTTCCCTTGCTAACACAAAAGTCAAGAACACAAACAACCACCCCAACCCCCTTACACACAAGACATATCTACAGCA
modifications: misc_feature: Promoter EXP1
Regarding B3, the “Activity “Rank”” value in series [1] was determined as 6.

B4: FBAINm: modified version of the FBAIN promoter, SEQ ID NO:163 (nucleic acid, listed as Yarrowia lipolytica)
DNA: AAATTGCCCCGGAGAAGACGGCCAGGCCGCCTAGATGACAAATTCAACAACTCACAGCTGACTTTCTGCCATTGCCACTAGGGGGGGGCCTTTTTATATGGCCAAGCCAAGCTCTCCACGTCGGTTGGGCTGCACCCAACAATAAATGGGTAGGGTTGCACCAACAAAGGGATGGGATGGGGGGTAGAAGATACGAGGATAACGGGGCTCAATGGCACAAATAAGAACGAATACTGCCATTAAGACTCGTGATCCAGCGACTGACACCATTGCATCATCTAAGGGCCTCAAAACTACCTCGGAACTGCTGCGCTGATCTGGACACCACAGAGGTTCCGAGCACTTTAGGTTGCACCAAATGTCCCACCAGGTGCAGGCAGAAAACGCTGGAACAGCGTGTACAGTTTGTCTTAACAAAAAGTGAGGGCGCTGAGGTCGAGCAGGGTGGTGTGACTTGTTATAGCCTTTAGAGCTGCGAAAGCGCGTATGGATTTGGCTCATCAGGCCAGATTGAGGGTCTGTGGACACATGTCATGTTAGTGTACTTCAATCGCCCCCTGGATATAGCCCCGACAATAGGCCGTGGCCTCATTTTTTTGCCTTCCGCACATTTCCATTGCTCGGTACCCACACCTTGCTTCTCCTGCACTTGCCAACCTTAATACTGGTTTACATTGACCAACATCTTACAAGCGGGGGGCTTGTCTAGGGTATATATAAACAGTGGCTCTCCCAATCGGTTGCCAGTCTCTTTTTTCCTTTCTTTCCCCACAGATTCGAAATCTAAACTACACATCACAGAATTCCGAGCCGTGAGTATCCACGACAAGATCAGTGTCGAGACGACGCGTTTTGTGTAATGACACAATCCGAAAGTCGCTAGCAACACACACTCTCTACACAAACTAACCCAGCTCTGGTACC
modifications: misc_feature: Promoter FBAINm
Take B4: the “Activity “Rank”” value in series [1] is reported as 5.

B5: Homo sapiens Δ5 desaturase: GenBank NP_037534; codon-optimized gene SEQ ID NO:13 (protein, listed as Homo sapiens)
chain: MAPDPVAAETAAQGPTPRYFTWDEVAQRSGCEERWLVIDRKVYNISEFTRRHPGGSRVISHYAGQDATDPFVAFHINKGLVKKYMNSLLIGELSPEQPSFEPTKNKELTDEFRELRATVERMGLMKANHVFFLLYLLHILLLDGAAWLTLWVFGTSFLPFLLCAVLLSAVQAQAGWLQHDFGHLSVFSTSKWNHLLHHFVIGHLKGAPASWWNHMHFQHHAKPNCFRKDPDINMHPFFFALGKILSVELGKQKKKYMPYNHQHKYFFLIGPPALLPLYFQWYIFYFVIQRKKWVDLAWMITFYVRFFLTYVPLLGLKAFLGLFFIVRFLESNWFVWVTQMNHIPMHIDHDRNMDWVSTQLQATCNVHKSAFNDWFSGHLNFQIEHHLFPTMPRHNYHKVAPLVQSLCAKHGIEYQSKPLLSAFADIIHSLKESGQLWLDAYLHQ
modifications: misc_feature: synthetic delta-5 desaturase (codon-optimized)
For B5, the “Codon-Opt. Gene % Sub. Conv.” value in the series with Yarrowia lipolytica came out at 30%.
